Results reported in patent US20240182911A1 (University of California, published 2024).
Numbering of substitutions follows the chain as printed. Names may count otherwise.

B1: Nb.b201i3 (VHH)
VHH: QVQLQESGGGLVQAGGSLRLSCAASGYISDAYYMGWYRQAPGKEREFVATITHGTNTYYADSVKGRFTISRDNAKNTVYLQMNSLKPEDTAVYYCAVLETRSYSFRYWGQGTQVTVSS
notes: also called Nb.b201 mutants
B2: Nb.b201 (VHH)
VHH: B1 VHH with N83Y
notes: also called nanobody Nb.b201
B3: Nb.b201i1 (VHH)
VHH: B1 VHH with E46G
notes: also called Nb.b201 mutants
B4: AT110 (VHH)
VHH: QVQLQESGGGLVQAGGSLRLSCAASGNIFDADIMGWYRQAPGKERELVASITDGGSTNYADSVKGRFTISRDNAKNTVYLQMNSLKPEDTAVYYCAAIAYPDIPTYFDYDSDYFYWGQGTQVTVSS
notes: also called nanobody AT110
B5: AT110 R45C (VHH)
VHH: B4 VHH with R45C
notes: also called dominant mutation R45C
B6: AT110 Y113H (VHH)
VHH: B4 VHH with Y113H
notes: also called single mutation Y113H
B7: AT110i101 (VHH)
VHH: B4 VHH with I98V
notes: also called AT110 I98V; dominant mutation 198V (so in the source)
B8: AT110i102 (VHH)
VHH: B4 VHH with R66H, I98V
B9: AT110i103 (VHH)
VHH: B4 VHH with R66H, I98V, Y113H
B10: AT110i104 (VHH)
VHH: B4 VHH with R66H
notes: also called AT110 R66H; single mutation R66H

Target: human serum albumin (HSA) (human, UniProt P02768 25-609)
Assay: on-yeast binding assay: yeast-displayed nanobody, titration of HSA, n=3, EC50 from curve fit

Compared with B1, B2 is 3.3-fold higher in EC50: 5.4 nM for the first, 18 nM for the second. The first is the more potent here.

In the case of B3, the EC50 is reported as 8 nM.

Target: T1, angiotensin II type 1 receptor (AT1R) with FLAG peptide fused to its N-terminus (human, UniProt P30556 2-359)
T1 construct: also called AT1R-angiotensin II complex
T1 sequence: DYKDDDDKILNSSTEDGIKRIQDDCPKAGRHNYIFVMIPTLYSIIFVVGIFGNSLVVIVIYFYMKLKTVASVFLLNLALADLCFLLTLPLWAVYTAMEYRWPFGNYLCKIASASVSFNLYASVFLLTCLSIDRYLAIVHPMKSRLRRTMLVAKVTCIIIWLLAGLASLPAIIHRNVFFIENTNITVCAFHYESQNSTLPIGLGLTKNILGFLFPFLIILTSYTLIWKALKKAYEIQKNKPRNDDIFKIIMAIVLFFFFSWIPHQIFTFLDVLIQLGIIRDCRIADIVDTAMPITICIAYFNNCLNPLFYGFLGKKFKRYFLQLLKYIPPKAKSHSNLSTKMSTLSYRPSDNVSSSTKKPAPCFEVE
Assay: on-yeast binding assay: yeast-displayed nanobody, titration of AT1R-angiotensin II complex, single replicate, EC50 from curve fit

Going from B4 to B5, the EC50 falls from 257 nM to 15 nM (17-fold). The second is the more potent here.

B6 and B7 are within 1.5-fold of each other in EC50: 35 nM for the first, 48 nM for the second.

B8 and B9 are within 1.5-fold of each other in EC50: 14 nM for the first, 20 nM for the second.

Binder B10 has an EC50 of 133 nM.

Target: T1, angiotensin II type 1 receptor (AT1R) …
Assay: radioligand competition binding assay on AT1R (nanobody stabilises agonist binding in the presence of antagonist; radioligand not named), three independent experiments; column headed Affinity

B4 and B6 are within 1.5-fold of each other in IC50: 50 nM for the first, 63 nM for the second.

Compared with B7, B8 is 3-fold lower in IC50: 15 nM for the first, 5 nM for the second.

Compared with B9, B10 is 12-fold higher in IC50: 2.5 nM for the first, 31 nM for the second.
